The numbers were not newly measured in article PMC12687463, which cites them from elsewhere.

pKi: −log10 of the molar value. Where two headings read alike, the source gives them in different places.

For data set [1], the target named is glucokinase regulatory protein (GKRP) (Homo sapiens) (UniProt Q14397).
For data set [2] the target is unchanged. The source holds these as a separate data set.
The target is the same in data set [3]. The source holds these as a separate data set.

Sequence of glucokinase (P35557 whole entry): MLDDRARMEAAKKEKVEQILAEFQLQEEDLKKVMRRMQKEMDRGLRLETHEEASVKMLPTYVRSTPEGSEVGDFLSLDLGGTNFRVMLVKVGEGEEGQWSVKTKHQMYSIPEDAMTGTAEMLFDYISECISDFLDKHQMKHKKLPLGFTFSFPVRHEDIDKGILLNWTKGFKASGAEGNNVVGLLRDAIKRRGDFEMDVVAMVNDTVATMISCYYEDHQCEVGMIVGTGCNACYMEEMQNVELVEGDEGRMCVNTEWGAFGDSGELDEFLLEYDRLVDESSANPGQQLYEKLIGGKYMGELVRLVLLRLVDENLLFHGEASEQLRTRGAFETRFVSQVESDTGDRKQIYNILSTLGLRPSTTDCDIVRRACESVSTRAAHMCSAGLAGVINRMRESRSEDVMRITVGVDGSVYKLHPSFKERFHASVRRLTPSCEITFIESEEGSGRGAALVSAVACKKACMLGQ
Sequence of UniProt Q14397 (Q14397 whole entry): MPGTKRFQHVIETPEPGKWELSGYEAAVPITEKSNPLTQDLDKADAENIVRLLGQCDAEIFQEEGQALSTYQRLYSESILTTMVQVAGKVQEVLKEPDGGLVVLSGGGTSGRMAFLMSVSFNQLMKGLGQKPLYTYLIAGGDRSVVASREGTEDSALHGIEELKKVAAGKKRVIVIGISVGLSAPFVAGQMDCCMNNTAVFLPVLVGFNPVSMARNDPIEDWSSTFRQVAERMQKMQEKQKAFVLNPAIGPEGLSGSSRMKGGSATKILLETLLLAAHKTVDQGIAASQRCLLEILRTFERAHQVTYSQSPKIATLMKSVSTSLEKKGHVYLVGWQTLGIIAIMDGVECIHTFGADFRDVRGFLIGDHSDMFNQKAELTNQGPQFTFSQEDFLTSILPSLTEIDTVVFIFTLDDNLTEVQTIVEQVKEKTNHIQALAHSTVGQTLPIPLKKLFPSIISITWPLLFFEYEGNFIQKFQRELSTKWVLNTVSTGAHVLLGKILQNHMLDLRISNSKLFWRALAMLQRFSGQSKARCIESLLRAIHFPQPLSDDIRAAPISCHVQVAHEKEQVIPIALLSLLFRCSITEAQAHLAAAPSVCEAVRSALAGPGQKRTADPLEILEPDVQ

As to glucokinase (from UniProt P35557), the figures for the pKi in data set [1], in data set [2] and in data set [3] were 7.35, 5.15 and 6.01, respectively.

As a reminder, the pKi is the negative decadic logarithm of the Ki, by convention in mol/L.
